Patent publication US20240287172A1 (SCIRHOM, published 2024)
Where a chain is given by its changes, count along the chain named.

B1: antibody 46 (antibody, V domains shown)
VH: QVTLKESGPGILQPSQTLSLTCSFSGFSLSTFGMGVGWIRQPSGKGLEWLAHIWWDDDNYYNQALKSRLTISKDNTKNQVFLNIANVDTADTATYYCARIRSYDYDVRYAMDYWGQGTSVTVSS
VL: DIKMTQSPSSMYASLRERVTITCKASQDINSYLSWFQQKPGKSPKTLIYRANRLVDGVPSRFSGSGSGQDYSLTISSLEYEDLGIYYCQQYYEFPLTFGAGTRLELK
notes: mouse IgG, kappa light chain; also called clone #46
B2: antibody 16 (antibody, V domains shown)
VH: QVTLKESGPGILQPSQTLSLTCSFSGFSLSTFALGVGWIRQPSGRGLEWLAHIWWDDDKYYNPALKSRLTISKDTSKNHVFLKIANVDTADTATYYCARITTYYYGMDYWGQGTSVTVSS
VL: DIVLSQSPATLSVTPGDSVSLFCRASQSIGNHLHWYQQESHASPRLLIKYASQSISGIPSRFSGSGSGTDFTLSINSVETEDFGMYFCQQSYNWPLTFGAGTKLELK
notes: mouse IgG, kappa light chain; also called clone #16; purified antibody 16
B3: antibody 3 (antibody, V domains shown)
VH: QVTLKESGPGILQPSQTLSLTCSFSGFSLTTFAMGIGWVRQPSGKGLEWLAHIWWDGEKYNNPVLKSRLTISKDTSKNQVFLRIANVDTPDTATYYCARISSIYYIIDNWGQGTSVTVSS
VL: B2 VL with S5T, D17H, F22S, G30S, H32N, Q38K, E39K, A42E, A51V
notes: mouse IgG, kappa light chain; also called clone #3; purified antibody 3
B4: antibody 5 (antibody, V domains shown)
VH: QVTLKESGPGILQPSQTLSLTCSFSGFSLSTFGMGVGWIRQPSGKGLEWLAHIWWDDEKYYNSALKSRLTISKATSKNQAFLKIANVDTADTATYYCARISNYGSNYWYFNVWGTGTTVTVSS
VL: QVVLTQSPALMSASPGEKVTMTCSAGSSVSCMYWYQQKPGSSPRVLIYDTSNLASGVPARFTGSGSGTSYSLTISRMEAEDAASYYCQQWNSYPLTFGAGTKLELK
notes: mouse IgG, kappa light chain; also called clone #5; purified antibody 5
B5: antibody 57 (antibody, V domains shown)
VH: B4 VH with E58D, S63P, A74D, A80I, T92S, Y95F, S101E, N111D
VL: B4 VL with V2I, L10I, G26S, C31Y, A59V, T62S, I74V, S84T
notes: mouse IgG, kappa light chain; also called clone #57
B6: antibody 44 (antibody, V domains shown)
VH: B4 VH with G44E, E58D, S63P, A74D, A80I, A85T, D91E, A98S, S101G, N111D
VL: QIVLTQSPAVMSASPGEKVTMTCTASSSVYYMYWYQQTPGSSPRLLIYDTSNLASGVPVRFSGSGSGTSYSLTISRMEAEDAATYYCQQWNTYPLTFGAGTKLELK
notes: mouse IgG, kappa light chain; also called clone #44; purified antibody 44
B7: antibody 43 (antibody, V domains shown)
VH: B4 VH with T3A, P42S, H52N, E58D, S63P, A74D, T75A, S101G, N111D
VL: QIVLTQSPAIMSASPGERVTMTCSANSRISYMYWYQQKPGSSPRLLIYDTSNLASGVPVRFSGSGSGTSYSLTISRMEAEDAATYNCQQWSSYPLTFGAGTKLELK
notes: mouse IgG, kappa light chain; also called clone #43; purified antibody 43
B8: antibody 42 (antibody, V domains shown)
VH: B4 VH with F24L, M34R, S63P, A74D, A80V, K83R, S101Q, N111D
VL: B7 VL with Q1L, R18K, S24G, N26T, Y33F, L45V, M77V, A82V, N86Y, S91N
notes: mouse IgG, kappa light chain; also called clone #42; purified antibody 42
B9: antibody 22 (antibody, V domains shown)
VH: B4 VH with A80V
VL: B4 VL with C31Y, S84T
notes: mouse IgG, kappa light chain; also called clone #22; purified antibody 22
B10: antibody 49 (antibody, V domains shown)
VH: QVTLKESGPGILQPSQTLSLTCSFSGFSLSTFGMGVGWIRQPSGKGLEWLAHIWWDDDKYYNPALQSRLTVSKDTAKNQVFLKIANVDTADTAIYYCARVGNYGSNYWYFAVWGTGTTVTVSS
VL: B6 VL with V10I, T24S, Y30S, T38K, T92S
notes: mouse IgG, kappa light chain; also called clone #49
B11: antibody 56 (antibody, V domains shown)
VH: B4 VH with A51T, H52N, E58D, A64V, A74D, A80V, S101A, N102A, N111D
VL: B7 VL with R18K, N26S, R28S, I29V, L45V, A54S, N86Y
notes: mouse IgG, kappa light chain; also called clone #56
B12: antibody 34 (antibody, V domains shown)
VH: QVTLKESGPGILQPSQTLSLTCSFSGFSLSTFSLGVGWIRQSSGKGLEWLAHIWWDDEKYYNPALKSRLTISKDTSKNQVFLKIANVDAADTATYYCARAYYSKSYYALDYWGQGTSVTVSS
VL: DIQMTQSPSSLSASLGERVSLTCRASQEISGYLSWLQQKPDGTIKRLIYAASTLDSGVPKRFSGSRSGSDYSLAISSLESEDFADYYCLQYANFPFTFGSGTKLEIK
notes: mouse IgG, kappa light chain; also called clone #34; purified antibody 34

Assays:
[1] = target: T1, dog iRhom2 full length wild type, T7-tagged (dog, UniProt Q00M95 1-827); assay: FACS, MEF-DKO cells; via representative antibody 16
T1 construct: whole, on cells; on MEF-DKO cells; also called Dog-iR2-FL-WT-T7
T1 sequence: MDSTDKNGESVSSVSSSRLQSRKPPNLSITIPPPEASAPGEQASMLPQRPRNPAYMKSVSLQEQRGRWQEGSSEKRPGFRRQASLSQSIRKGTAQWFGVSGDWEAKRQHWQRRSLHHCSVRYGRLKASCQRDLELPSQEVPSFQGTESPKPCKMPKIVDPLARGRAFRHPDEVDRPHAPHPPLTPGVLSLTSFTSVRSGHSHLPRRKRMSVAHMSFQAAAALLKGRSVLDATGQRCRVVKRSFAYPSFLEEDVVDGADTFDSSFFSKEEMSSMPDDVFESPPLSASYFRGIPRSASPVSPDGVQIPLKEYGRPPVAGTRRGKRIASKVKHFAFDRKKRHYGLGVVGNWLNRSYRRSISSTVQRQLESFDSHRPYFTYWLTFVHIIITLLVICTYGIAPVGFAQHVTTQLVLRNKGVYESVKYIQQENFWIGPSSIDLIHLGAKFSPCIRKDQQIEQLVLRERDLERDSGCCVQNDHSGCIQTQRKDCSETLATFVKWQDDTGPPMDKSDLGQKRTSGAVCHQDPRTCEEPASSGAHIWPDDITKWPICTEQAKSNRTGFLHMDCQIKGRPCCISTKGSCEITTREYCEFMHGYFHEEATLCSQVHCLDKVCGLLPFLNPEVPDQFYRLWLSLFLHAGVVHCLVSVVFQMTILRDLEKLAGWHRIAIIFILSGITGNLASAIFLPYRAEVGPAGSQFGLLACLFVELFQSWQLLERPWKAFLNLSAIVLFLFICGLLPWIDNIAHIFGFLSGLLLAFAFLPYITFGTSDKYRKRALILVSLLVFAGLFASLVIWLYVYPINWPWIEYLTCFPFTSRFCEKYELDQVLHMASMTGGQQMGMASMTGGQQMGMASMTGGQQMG
Description: In brief, immortalized MEF-DKO-EV control cells, MEF-DKO-rhesus-iR2-FL-WT-T7 cells, MEF-DKO-cyno-iR2-FL-WT-T7 cells, MEF-DKO-dog-iR2-FL-WT-T7 cells and MEF-DKO-rabbit-iR2-FL-WT-T7 cells, as well as their respective iRhom1 counterparts, were harvested with 10 mM EDTA in PBS, washed and resuspended in FACS buffer (PBS, 3% FBS, 0.05% sodium azide), and seeded in Nunc U-bottom 96-well plates (Thermo Fisher Scientific, USA) at approximately 3×10⁵ cells per well. To pellet cells and remove supernatants, the plates were centrifuged at 1,500 rpm and 4° C. for 3 minutes. For primary staining, cells were resuspended in 100 μl per well of either FACS buffer alone (controls), mouse monoclonal anti-T7 IgG (Merck Millipore, USA) at 3 μg/ml FACS buffer or the antibodies of the invention also at 3 μg/ml FACS buffer and incubated on ice for 1 hour.
(§1) Afterwards, plates were centrifuged at 1,500 rpm and 4° C. for 3 minutes and washed twice with 200 μl per well of FACS buffer. For secondary staining, cells were spun down and resuspended in 100 μl per well of PE-conjugated goat anti-mouse IgG F(ab′)2 detection fragment (Dianova, Germany) diluted 1:100 in FACS buffer. Protected from light, the cell suspensions were incubated on ice for 1 hour. Plates were then centrifuged at 1,500 rpm and 4° C. for 3 minutes and washed three times with 200 μl per well of FACS buffer. Finally, cells were resuspended in 150 μl per well of FACS buffer and analyzed using a BD Accuri™ C6 Plus flow cytometer (Becton Dickinson, Germany).

miR2-FL-WT-FLAG = target: T2, miR2-FL-WT-FLAG (mouse, UniProt Q80WQ6 1-827); assay: FACS, MEF-DKO-miR2-FL-WT-FLAG cells
T2 construct: on MEF-DKO cells
T2 sequence: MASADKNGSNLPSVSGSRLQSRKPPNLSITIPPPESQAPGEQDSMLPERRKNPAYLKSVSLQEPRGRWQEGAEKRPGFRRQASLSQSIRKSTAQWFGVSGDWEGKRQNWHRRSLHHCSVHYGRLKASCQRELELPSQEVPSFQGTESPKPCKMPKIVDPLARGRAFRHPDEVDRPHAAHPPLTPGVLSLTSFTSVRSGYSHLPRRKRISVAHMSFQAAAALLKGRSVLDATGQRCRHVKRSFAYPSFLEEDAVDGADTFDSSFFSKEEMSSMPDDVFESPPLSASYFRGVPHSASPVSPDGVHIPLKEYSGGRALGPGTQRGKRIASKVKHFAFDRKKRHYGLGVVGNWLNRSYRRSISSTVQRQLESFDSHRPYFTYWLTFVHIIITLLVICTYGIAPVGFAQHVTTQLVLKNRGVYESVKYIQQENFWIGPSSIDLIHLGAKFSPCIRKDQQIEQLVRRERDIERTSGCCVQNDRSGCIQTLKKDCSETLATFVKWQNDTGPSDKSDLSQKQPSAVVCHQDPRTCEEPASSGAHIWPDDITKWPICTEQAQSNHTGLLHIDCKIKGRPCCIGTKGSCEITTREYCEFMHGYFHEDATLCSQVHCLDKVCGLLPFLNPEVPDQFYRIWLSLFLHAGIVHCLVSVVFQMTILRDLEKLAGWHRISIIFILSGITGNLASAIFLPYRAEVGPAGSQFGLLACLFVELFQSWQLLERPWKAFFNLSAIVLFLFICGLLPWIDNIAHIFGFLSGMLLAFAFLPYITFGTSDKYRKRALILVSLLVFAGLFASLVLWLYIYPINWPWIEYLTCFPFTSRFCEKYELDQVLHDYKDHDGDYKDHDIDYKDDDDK
Description: as §1, with “In brief, immortalized MEF-DKO-EV control cells, MEF-DKO-hiR2-FL-WT-FLAG cells and MEF-DKO-miR2-FL-WT-FLAG cells were harvested with 10 mM EDTA in PBS, washed and resuspended in FACS buffer (PBS, 3% FBS, 0.05% sodium azide), and seeded in Nunc U-bottom 96-well plates (Thermo Fisher Scientific, USA) at approximately 3×10⁵ cells per well. To pellet cells and remove supernatants, the plates were centrifuged at 1,500 rpm and 4° C. for 3 minutes. For primary staining, cells were resuspended in 100 μl per well of either FACS buffer alone (controls), mouse monoclonal anti-FLAG IgG (Sigma-Aldrich, USA) at 3 μg/ml FACS buffer or the antibodies of the invention also at 3 μg/ml FACS buffer and incubated on ice for 1 hour. Afterwards,” for “Afterwards,”

Binder	binding result [1]	binding result (miR2-FL-WT-FLAG)
B1	binds	no binding (tested: 3 µg/ml)
B2	–	no binding (tested: 3 µg/ml)
B3	binds	–
B4	binds	no binding (tested: 3 µg/ml)
B5	binds	no binding (tested: 3 µg/ml)
B6	binds	no binding (tested: 3 µg/ml)
B7	binds	no binding (tested: 3 µg/ml)
B8	binds	no binding (tested: 3 µg/ml)
B9	binds	no binding (tested: 3 µg/ml)
B10	binds	no binding (tested: 3 µg/ml)
B11	binds	no binding (tested: 3 µg/ml)
B12	binds	no binding (tested: 3 µg/ml)
